Laboratory results from patent US12692524B2, “Sialyltransferases and their use in producing sialylated oligosaccharides” (Chr. Hansen A/S, priority 2017, dated 2026).

B1: SiaT22: sialyltransferase of Streptococcus entericus, acc. WP_018369230, SEQ ID NO: 13 (protein, listed as Streptococcus entericus)
chain: MKKVYFCHTVYHLLITLCKISVEEQVEIIVFDTVSNHELIVQKIRDVFVNTTVLFAEQNTDFSILEIDRATDIYVFNDWTPIGAYLRKNKLFYHLIEDGYNYHEYNVYANALTMKRRLLNFVLRREEPSGFSRYVRSIEVNRVKYLPNDCRKSKWVEKPRSALFENLVPEHKQKIITIFGLENYQDSLRGVLVLTQPLVQDYWDRDITTEEEQLEFYRQIVESYGEGEQVFFKIHPRDKVDYSSLTNVIFLKKNVPMEVYELIADCHFTKGITHSSTALDFLSCVDKKITLKQMKANS
B2: SiaT30: sialyltransferase of Haemophilus parahaemolyticus HK385, acc. EIJ71207, SEQ ID NO: 19 (protein, listed as Haemophilus parahaemolyticus)
chain: MTEQYIKNVEVYLDYATIPTLNYFYHFTENKDDIATIRLFGLGRFNISKSIIESYPEGIIRYCPIIFEDQTAFQQLFITLLTEDSFCQYRFNFHINLFHSWKMLIPLLHIIWQFKHKVLDIKLNFYDDGSEGLVTLSKIEQNYSSEILQKIIDIDSQSFYADKLSFLDEDIARYLWNSLFESHYYLLNDFLLKNEKLSLLKNSIKYCHIMDLERYLQFTQEEKDFFNELLGINIQSLEDKIKIFQQKKTFIFTGTTIFSLPKEEEETLYRLHLNAILNYIHPNGKYFIGDGFTLVIKGHPHQKEMNSRLEKSFEKAVMLPDNIPFEILYLIGCKPDKIGGFVSTSYFSCDKKNIADLLFISARQEEVRKNDYLFNIQYQLRDMMIKTGFIQEEKTHFYSDIPIFIS
B3: SiaT39: sialyltransferase of Alistipes shahii WAL 8301, acc. YP_007816735, SEQ ID NO: 23 (protein, listed as Alistipes shahii)
chain: MDDGTPSVSINGGTDFLSLDHLARSGKITVNAPAPWSVTLAPENYGQDEKPDWLTLSAEEGPAGYSEIDVTFAENPGPARSASLLFSCDGKTLAFTVSQSAGGTGFDAPDYYFYISVGTMPTLYSGLHLLSHDKPSYVSYERASTFDAAEFPDRAFVYPVADPTGHATNEELRAMSEAMKRRILEINAEDPTAVFGLWVDDLRCRLGYDWFVAQGIDSARVKVTMLSDGTATYNNFHNYFGDAATAEQNWNDYAAEVEALDWNHGGRYPETRAPEEFASYTWPYYLSTRPDYRLMLQNSSLMESSCPFIADRLAAMKMESVQPYELLTALPEASKQQFYRMAKFDYARFAGLFDLSPKKNLIIIGTSHSSAASEQQQAAYVERIIQQYGSDYDIFFKPHPADSSSAGYPDRFEGLTLLPGQMPFEIFVWALLDKIDMIGGYPSTTFISVPLDKVGFLFAADADGLVRPLNILFRDAANVEWIQ
B4: SiaT34: sialyltransferase of Pasteurella multocida PM70, acc. NC_002663, SEQ ID NO: 6 (protein, listed as Pasteurella multocida)
chain: MDKFAEHEIPKAVIVAGNGESLSQIDYRLLPKNYDVFRCNQFYFEERYFLGNKIKAVFFTPGVFLEQYYTLYHLKRNNEYFVDNVILSSFNHPTVDLEKSQKIQALFIDVINGYEKYLSKLTAFDVYLRYKELYENQRITSGVYMCAVAIAMGYTDIYLTGIDFYQASEENYAFDNKKPNIIRLLPDFRKEKTLFSYHSKDIDLEALSFLQQHYHVNFYSISPMSPLSKHFPIPTVEDDCETTFVAPLKENYINDILLPPHFVYEKLGVDKLAAALEHHHHHH
B5: SiaT41: sialyltransferase of Actinobacillus suis ATCC 33415, acc. AIJ32009, SEQ ID NO: 24 (protein, listed as Actinobacillus suis)
chain: MERTPQLQAVDIYIDFATIPSLSYFLHFLKHKHDDQRLRLFSLARFEMPQTLIEQYEGIIQFSRNVEHNVEPLLEQLQTILSQEGKQFELHLHLNLFHSFEMFLNLSPTYTQYKEKISKIVLHLYDDGSEGVMKQYQLQKSSSLVQDLAATKASLVSLFENGEGSFSQIDLIRYVWNAVLETHYYLLSDHFLLDEKLQPLKAELGHYQLLNLSAYQYLSSEDLLWLKQILKIDTELESLMQKLTAQPVYFFSGTTFFNISFEDKQRLANIHAILIREHLDPNSQLFIGEPYLFVFKGHPNSPEINQALREYYPNVIFLPENIPFEILTLLGFSPQKIGGFASTIHVNSEQSKLAKLFFLTSTDEQERQLSDGYIKQYALAQAMLEMQLVSQEQVYYCSLSS
B6: SiaT32: sialyltransferase of Alistipes sp. AL-1, acc. WP_032134786, SEQ ID NO: 15 (protein, listed as Alistipes sp.)
chain: MALLSGTAACSDDEVSQNLIVINGGEHFLSLDGLARAGKISVLAPAPWRVTKAAGDTWFRLSATEGPAGYSEVELSLDENPGAARSAQLAFACGDAIVPFRLSQGALSAGYDSPDYYFYVTFGTMPTLYAGIHLLSHDKPGYVFYSRSKTFDPAEFPARAEVTTAADRTADATQAEMEAMAREMKRRILEINSADPTAVFGLYVDDLRCRIGYDWFVAQGIDSARVKVSMLSDGTGTYNNFYNYFGDAATAEQNWESYASEVEALDWNHGGRYPETRSLPEFESYTWPYYLSTRPDYRLVVQDGSLLESSCPFITEKLGEMEIESIQPYEMLSALPESSRKRFYDMAGFDYDKFAALFDASPKKNLIIIGTSHADDASARLQRDYVARIMEQYGAQYDVFFKPHPADTTSAGYETEFPGLTLLPGQMPFEIFVWSLIDRVDMIGGYPSTVFLTVPVDKVRFIFAADAASLVRPLNILFRDATDVEWMQ
B7: SiaT31: sialyltransferase of Alistipes sp. CAG:268, acc. CDC95697, SEQ ID NO: 22 (protein, listed as Alistipes sp.)
chain: MASCSDDDKEQTGFQIDDGSGFLSLDAAARSGSIAITANNSWSVTQDKDSEWLTLSTTSGAAGRTEIGIMLEANPGEARNAGLTFNSGGRTYPFVITQSAHVTADFDDADHCFYITFGTLPTLYAGLHVLSHDKPSYVFFQRSQTFRPEEFPAHAEVTIAADPSANATDEDMERMRTAMKQQILKINVEDPTAVFGLYVDDLRCGIGYDWFVAQGIDSTRVKVSMLSDGTGTYNNFYNYFGDPATAEQNWENYAAQVEALDWQHGGRFPETRMPDGFDFYEWPYYLATRPNYRLVLQDDDLLEATSPFMTERLQQMRTESKQPYELLASLPAEARQRFFRMAGFDYDAFAALFDASPKKNLVIIGTSHTSEESEAQQAAYVERIIGDYGTAYDIFFKPHPADSSSSNYEERFEGLTLLPGQMPFEIFVWSLLDKVDLIGGYSSTVFLTVPVEKTGFIFAANAESLPRPLNVLFRNAEHVRWIQ
B8: SiaT24: sialyltransferase of Avibacterium paragaffinarum, acc. WP_021724759, SEQ ID NO: 9 (protein, listed as Avibacterium paragallinarum)
chain: MRKIITFFSLFFSISAWCQKMEIYLDYASLPSLNMILNLVENKNNEKVERIIGFERFDFNKEILNSFSKERIEFSKVSILDIKEFSDKLYLNIEKSDTPVDLIIHTNLDHSVRSLLSIFKTLSPLFHKINIEKLYLYDDGSGNYVDLYQHRQENISAILIEAQKKLKDALENRETDTDKLHSLTRYTWHKIFPTEYILLRPDYLDIDEKMQPLKHFLSDTIVSMDLSRFSHFSKNQKELFLKITHFDQNIFNELNIGTKNKEYKTFIFTGTTTWEKDKKKRLNNAKLQTEILESFIKPNGKFYLGNDIKIFFKGHPKGDDINDYIIRKTGAEKIPANIPFEVLMMTNSLPDYVGGIMSTVYFSLPPKNIDKVVFLGSEKIKNENDAKSQTLSKLMLMLNVITPEQIFFEEMPNPINF
B9: SiaT37: sialyltransferase of Campylobacter jejuni strain 81-176, acc. AAL09368, SEQ ID NO: 16 (protein, listed as Campylobacter jejuni)
chain: MKKVIIAGNGPSLKEIDYSRLPNDFDVFRCNQFYFEDKYYLGKKCKAVFYTPNFFFEQYYTLKHLIQNQEYETELIMCSNYNQAHLENENFVKTFYDYFPDAHLGYDFFKQLKEFNAYFKFHEIYFNQRITSGVYMCAVAIALGYKEIYLSGIDFYQNGSSYAFDTKQENLLKLAPDFKNDRSHYIGHSKNTDIKALEFLEKTYKIKLYCLCPNSLLANFIELAPNLNSNFIIQEKNNYTKDILIPSSEAYGKFSKNINFKKIKIKENVYYKLIKDLLRLPSDIKHYFKGK

What was measured:
[1] = In vitro sialylation of LNT by protein extracts, LST-a/-b quantified by LC-MS/MS; assay type: biochemical; settings: 5 mM LNT, 10 mM CMP-Neu5Ac, 16 hours, LC-MS/MS; relative quantity; n.d.: not detectable
In short: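 E. coli BL21(DE3) crude extracts overexpressing sialyltransferases (IPTG 0.3 mM, 12–16 h at 30 °C) incubated 16 h with 5 mM LNT and 10 mM CMP-Neu5Ac in 50 mM Tris-HCl pH 7.5, 5 mM MgCl2. LST-a and LST-b measured by HILIC LC-MS/MS, MRM in ESI negative mode, against commercial standards.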

[2] = In vivo screening in E. coli #1363/#1730 with lactose as acceptor, sialyllactose identified by TLC; assay type: cell-based, Escherichia coli BL21(DE3); settings: 1.5 mM lactose, 72 to 96 hours, qualitative via TLC
Description: Escherichia coli BL21(DE3) #1363 and #1730 harbouring plasmids encoding for 100 sialyltransferases were grown at 30° C. in 100 ml shake flasks filled with 20 ml of mineral salts medium (Samain et al., J. Biotech. 1999, 72:33-47) supplemented with 2% (wt/vol) glucose, ampicillin 100 μg ml^−1, kanamycin 15 μg ml^−1 and zeocin 40 μg ml^−1. When the cultures reached an OD600 of 0.1 to 0.3, gene expression was induced by addition of 0.3 mM IPTG. After an incubation for one hour, 1.5 mM lactose was added to #1363 cultures whereas 1.5 mM lactose as well as 1.5 mM sialic acid was added to #1730 cultures. The incubation continued for 72 to 96 hours. Then, cells were harvested by centrifugation and mechanically disrupted in a defined volume using glass beads. Subsequently, samples were applied to thin layer chromatography (TLC) on Silica Gel 60 F254 (Merck KGaA, Darmstadt, Germany). A mixture of butanol:acetone:acetic acid:H2O (35/35/7/23 (v/v/v/v)) was used as mobile phase. For detection of the separated substances, the TLC plate was soaked with thymol reagent (0.5 g thymol solved in 95 ml ethanol, 5 ml sulfuric acid added) and heated.
In the entire screening, thirty two genes were identified to encode for α-2,3-sialyltransferases, thus producing 3′-SL. 19 enzymes synthesized 6′-SL and were depicted as α-2,6-sialyltransferases. An α-2,3- as well as an α-2,6-sialyltransferase activity could only be observed for 3 enzymes. […] The screening appeared highly accurate since the described activities of extensively characterized sialyltransferases, e. g. […] Regarding the product formation, the experimental setting allowed a semi-quantitative comparison of the screened enzymes. But to achieve deeper knowledge about their kinetic properties, the 3 potentially best performing α-2,3- and α-2,6-sialyltransferases were applied to in vitro assays.

Molecule	Relative efficacy of sialyltransferases regarding in-vitro production of sialyllacto-N-tetraoses: LST-a [1]	Production of sialyllactose in-vivo [2]
B1	564	3′-SL
B2	17	3′-SL
B3	4	3′-SL
B4	2.34 × 10^3	3′-SL
B5	3	3′-SL
B6	64	3′-SL, 6′-SL
B7	4	3′-SL
B8	835	3′-SL
B9	40	3′-SL
